{
  "source": "paper PMC8441365",
  "about": "“SCF^Fbxw5 targets kinesin‐13 proteins to facilitate ciliogenesis” (The EMBO Journal, 2021)",
  "binders": {"B1": {"name": "Fbxw5/Skp1 sub-complex (complex, human)", "chain 1": "MDEGGTPLLPDSLVYQIFLSLGPADVLAAGLVCRQWQAVSRDEFLWREQFYRYYQVARDVPRHPAAMSWYEEFQRLYDTVPCVEVQTLREHTDQVLHLSFSHSGYQFASCSKDCTVKIWSNDLTISLLHSADMRPYNWSYTQFSQFNKDDSLLLASGVFLGPHNSSSGEIAVISLDSFALLSRVRNKPYDVFGCWLTETSLISGNLHRIGDITSCSVLWLNNAFQDVESENVNVVKRLFKIQNLNASTVRTVMVADCSRFDSPDLLLEAGDPATSPCRIFDLGSDNEEVVAGPAPAHAKEGLRHFLDRVLEGRAQPQLSERMLETKVAELLAQGHTKPPERSATGAKSKYLIFTTGCLTYSPHQIGIKQILPHQMTTAGPVLGEGRGSDAFFDALDHVIDIHGHIIGMGLSPDNRYLYVNSRAWPNGAVVADPMQPPPIAEEIDLLVFDLKTMREVRRALRAHRAYTPNDECFFIFLDVSRDFVASGAEDRHGYIWDRHYNICLARLRHEDVVNSVVFSPQEQELLLTASDDATIKAWRSPRTMRVLQAPRPRPRTFFSWLASQRR", "chain 2": "MPSIKLQSSDGEIFEVDVEIAKQSVTIKTMLEDLGMDPVPLPNVNAAILKKVIQWCTHHKDDPPDDIPVWDQEFLKVDQGTLFELILAANYLDIKGLLDVTCKTVANMIKGKTPEEIRKTFNIKNDFTEEEEAQVRKENQWCEEK", "notes": "Fbxw5, human; Skp1, human, with deletion of two loops (aa 38-43 and 71-82), plasmid pFastBac1-Skp1ΔΔ; pFastBac1-Skp1ΔΔ is the Skp1 baculovirus plasmid that the methods describe; source: Sf21, co-infected with both baculoviruses, purified (Ni-NTA, Superdex 200); not shown: His tag (from the Ni-NTA purification and precipitation)"}},
  "key": {"Fbxw5/Skp1 sub-complex": {"target": "B1", "assay": "pull-down; purified proteins from Sf21 cells, 5-fold molar excess of prey over Fbxw5/Skp1 bait, mixed with competing E. coli lysate in PD buffer (20 mM HEPES pH 7.3, 110 mM K-acetate, 300 mM NaCl, 20 mM imidazole, 0.1% NP-40), precipitated via Ni-NTA agarose, SDS-PAGE", "conditions": "both partners purified"}, "[1]": {"target": "T1, MCAK (purified from Sf21 cells) (human, UniProt Q99661 1-725)", "T1 construct": "Kif2c/MCAK, human; also called Kif2c; source: Sf21, purified (Ni-NTA, TEV cleavage, Superdex 200)", "T1 sequence (looked up)": "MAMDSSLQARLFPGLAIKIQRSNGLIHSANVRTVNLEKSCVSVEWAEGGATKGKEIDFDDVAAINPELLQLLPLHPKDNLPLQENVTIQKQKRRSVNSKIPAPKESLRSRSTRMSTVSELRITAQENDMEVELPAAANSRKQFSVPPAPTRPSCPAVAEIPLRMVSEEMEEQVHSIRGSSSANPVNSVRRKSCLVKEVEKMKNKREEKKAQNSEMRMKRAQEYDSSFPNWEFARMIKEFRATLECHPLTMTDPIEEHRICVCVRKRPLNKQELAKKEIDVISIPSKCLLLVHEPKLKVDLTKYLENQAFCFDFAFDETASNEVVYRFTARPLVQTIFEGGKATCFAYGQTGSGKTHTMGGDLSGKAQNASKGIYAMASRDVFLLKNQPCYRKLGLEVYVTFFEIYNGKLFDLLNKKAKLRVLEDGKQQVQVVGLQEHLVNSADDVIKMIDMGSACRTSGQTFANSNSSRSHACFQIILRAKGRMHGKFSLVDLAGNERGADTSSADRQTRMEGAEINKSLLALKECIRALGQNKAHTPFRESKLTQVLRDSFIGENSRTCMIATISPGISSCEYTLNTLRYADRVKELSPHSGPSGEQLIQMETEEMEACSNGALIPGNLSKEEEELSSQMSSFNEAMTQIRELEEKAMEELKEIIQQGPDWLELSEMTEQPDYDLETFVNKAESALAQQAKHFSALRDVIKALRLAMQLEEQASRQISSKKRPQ", "assay": "pull-down; purified proteins from Sf21 cells, 5-fold molar excess of prey over Fbxw5/Skp1 bait, mixed with competing E. coli lysate in PD buffer (20 mM HEPES pH 7.3, 110 mM K-acetate, 300 mM NaCl, 20 mM imidazole, 0.1% NP-40), precipitated via Ni-NTA agarose, SDS-PAGE", "conditions": "both partners purified"}},
  "data": [
    {"binder": "Kif2a (purified from Sf21 cells) (natural protein, human, UniProt O00139-1 1-679, looked up, source: Sf21, purified (Ni-NTA, TEV cleavage, Superdex 200)) MVTSLNEDNESVTVEWIENGDTKGKEIDLESIFSLNPDLVPDEEIEPSPETPPPPASSAKVNKIVKNRRTVASIKNDPPSRDNRVVGSARARPSQFPEQSSSAQQNGSVSDISPVQAAKKEFGPPSRRKSNCVKEVEKLQEKREKRRLQQQELREKRAQDVDATNPNYEIMCMIRDFRGSLDYRPLTTADPIDEHRICVCVRKRPLNKKETQMKDLDVITIPSKDVVMVHEPKQKVDLTRYLENQTFRFDYAFDDSAPNEMVYRFTARPLVETIFERGMATCFAYGQTGSGKTHTMGGDFSGKNQDCSKGIYALAARDVFLMLKKPNYKKLELQVYATFFEIYSGKVFDLLNRKTKLRVLEDGKQQVQVVGLQEREVKCVEDVLKLIDIGNSCRTSGQTSANAHSSRSHAVFQIILRRKGKLHGKFSLIDLAGNERGADTSSADRQTRLEGAEINKSLLALKECIRALGRNKPHTPFRASKLTQVLRDSFIGENSRTCMIATISPGMASCENTLNTLRYANRVKELTVDPTAAGDVRPIMHHPPNQIDDLETQWGVGSSPQRDDLKLLCEQNEEEVSPQLFTFHEAVSQMVEMEEQVVEDHRAVFQESIRWLEDEKALLEMTEEVDYDVDSYATQLEAILEQKIDILTELRDKVKSFRAALQEEEQASKQINPKRPRAL", "values": [
      {"measurement": "binding result", "setting": "Fbxw5/Skp1 sub-complex", "value": "binds"}
    ]},
    {"binder": "B1", "values": [
      {"measurement": "binding result", "setting": "[1]", "value": "binds"}
    ]}
  ]
}
